Experimental data reported in patent US20260000597A1 (priority 2018, published 2026).

Each substance was assayed against AchR (Homo sapiens, UniProt P02708) (assay: ELISA of screened peptide phages on AchR versus streptavidin (OD450)). Conditions: ELISA of selected 11-mer (L2) peptide phages on AchR, absorbance at 450 nm; Spep-2 positive control.
Sequence of AchR (P02708 21-457): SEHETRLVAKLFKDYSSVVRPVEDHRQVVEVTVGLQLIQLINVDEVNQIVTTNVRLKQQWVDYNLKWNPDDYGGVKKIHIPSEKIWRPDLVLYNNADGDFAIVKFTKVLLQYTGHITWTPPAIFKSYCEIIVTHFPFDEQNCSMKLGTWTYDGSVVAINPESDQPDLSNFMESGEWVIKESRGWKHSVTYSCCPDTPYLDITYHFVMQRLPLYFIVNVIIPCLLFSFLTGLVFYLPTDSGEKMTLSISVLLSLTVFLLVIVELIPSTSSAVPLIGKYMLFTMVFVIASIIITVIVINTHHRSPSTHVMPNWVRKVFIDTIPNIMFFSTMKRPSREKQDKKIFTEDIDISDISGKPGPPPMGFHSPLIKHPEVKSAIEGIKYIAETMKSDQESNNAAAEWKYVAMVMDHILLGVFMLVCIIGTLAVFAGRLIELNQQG
Assay type: binding
In short: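 Reported as the ratio of AchR to streptavidin OD450, with TMB read-out after HRP anti-M13 detection. Wells coated with 5 μg/ml target overnight at 4 °C and BSA-blocked, then incubated 1 h at 30 °C with helper-rescued phage from individual plaques.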
“L2-57 (LEHKERKDDFR; AchR binding peptide) [Peptide L2-57]” was tested, and the OD was 0.795. Work on “L2-153 (GHQRGKREGSR; AchR binding peptide) [Peptide L2-153]” yielded an OD of 0.688. “L2-182 (HEQRPKKGQQK; AchR binding peptide) [Peptide L2-182]” showed an OD of 0.681. With “L2-35 (NFTKLRKPGPR; AchR binding peptide) [Peptide L2-35]” the OD was 0.683. In the case of “L2-154 (NPFKYKKICPK; AchR binding peptide) [Peptide L2-154]”, the OD is reported as 0.736. “L2-144 (PYTRCRKEICK; AchR binding peptide) [Peptide L2-144]” gave an OD of 0.521. In the case of “L2-126 (AMMKYKKEFPK; AchR binding peptide) [Peptide L2-126]”, the OD is reported as 0.605. For “L2-151 (TQCKDRRVSDR; AchR binding peptide) [Peptide L2-151]”, the OD was 0.749. In the case of “L2-168 (GGAKNKKVVSR; AchR binding peptide) [Peptide L2-168]”, the OD is reported as 0.725. Substance “L2-2 (GIWKFRRNQCK; AchR binding peptide) [Peptide L2-2]” has an OD of 0.749. “L2-72 (APHKWRKQEQR; AchR binding peptide) [Peptide L2-72]” gave an OD of 0.638. For “L2-113 (QNDKDRKLSHR; AchR binding peptide) [Peptide L2-113]”, the OD was 0.64. In the case of “L2-79 (EGAKYRRDGWR; AchR binding peptide) [Peptide L2-79]”, the OD is reported as 0.689. In the case of “L2-172 (CTWRGRRPHDK; AchR binding peptide) [Peptide L2-172]”, the OD is reported as 0.685. Work on “L2-114 (QVTKSKRVAFK; AchR binding peptide) [Peptide L2-114]” yielded an OD of 0.643. With “L2-116 (SHSRQRKTPLR; AchR binding peptide) [Peptide L2-116]” the OD was 0.699. “L2-27 (QGEKYRRTESK; AchR binding peptide) [Peptide L2-27]” was tested, and the OD was 0.747. “L2-19 (GWNRAKREESK; AchR binding peptide) [Peptide L2-19]” gave an OD of 0.727. “L2-43 (LMDRTRRDMYK; AchR binding peptide) [Peptide L2-43]” showed an OD of 0.572. Substance “L2-94 (NPGKTKRWLQR; AchR binding peptide) [Peptide L2-94]” has an OD of 0.642. Substance “L2-150 (EDVRVKRQTCR; AchR binding peptide) [Peptide L2-150]” has an OD of 0.579. In the case of “L2-32 (LYMRCKKQAPR; AchR binding peptide) [Peptide L2-32]”, the OD is reported as 0.64. Substance “L2-100 (MNYRCKRVQER; AchR binding peptide) [Peptide L2-100]” has an OD of 0.551. Work on “L2-127 (YIIRWKRQMTR; AchR binding peptide) [Peptide L2-127]” yielded an OD of 0.569. “L2-190 (NLVKSKKVEEK; AchR binding peptide) [Peptide L2-190]” showed an OD of 0.721. “L2-49 (YPFKAKRPAEK; AchR binding peptide) [Peptide L2-49]” gave an OD of 0.734. For “L2-103 (QYNKGRKIHVR; AchR binding peptide) [Peptide L2-103]”, the OD was 0.571. Work on “L2-162 (NCDRTRKHWAR; AchR binding peptide) [Peptide L2-162]” yielded an OD of 0.584. Substance “L2-68 (GPDKSRRNLHR; AchR binding peptide) [Peptide L2-68]” has an OD of 0.721. “L2-50 (SADRNKRHMTR; AchR binding peptide) [Peptide L2-50]” showed an OD of 0.656. “L2-31 (NNSRSKRFMNR; AchR binding peptide) [Peptide L2-31]” showed an OD of 0.737. For “L2-174 (PLFKSRRAYVR; AchR binding peptide) [Peptide L2-174]”, the OD was 0.693. Substance “L2-37 (TLWKVRKAYSR; AchR binding peptide) [Peptide L2-37]” has an OD of 0.66. Substance “L2-74 (CIMRVKRMWWK; AchR binding peptide) [Peptide L2-74]” has an OD of 0.651. Work on “L2-178 (VPYRHRRMQFK; AchR binding peptide) [Peptide L2-178]” yielded an OD of 0.718. “L2-46 (CYWKAKRYPMR; AchR binding peptide) [Peptide L2-46]” was tested, and the OD was 0.704. “L2-106 (QRWKWRKSLAR; AchR binding peptide) [Peptide L2-106]” gave an OD of 0.926. In the case of “L2-1 (EDYKYRRQNYK; AchR binding peptide) [Peptide L2-1]”, the OD is reported as 0.705. In the case of “L2-135 (FPGKNRKYCSR; AchR binding peptide) [Peptide L2-135]”, the OD is reported as 0.557. For “L2-58 (ANPKNRKDNLR; AchR binding peptide) [Peptide L2-58]”, the OD was 0.701. With “L2-39 (LMTKNRRNSFR; AchR binding peptide) [Peptide L2-39]” the OD was 0.669. With “L2-187 (TAAKWKKIIMK; AchR binding peptide) [Peptide L2-187]” the OD was 0.731. “L2-33 (INYRCRKWVDK; AchR binding peptide) [Peptide L2-33]” was tested, and the OD was 0.619.

Same assay, conditions: ELISA of selected 14-mer (L3) peptide phages on AchR, absorbance at 450 nm; Spep-2 positive control
Work on “L3-105 (YYEKIRRGEIKIAE; AchR binding peptide) [Peptide L3-105]” yielded an OD of 0.601. For “L3-97 (WSAKGRRMGCKSTM; AchR binding peptide) [Peptide L3-97]”, the OD was 0.684. For “L3-82 (HMCRSKRVAWKNLI; AchR binding peptide) [Peptide L3-82]”, the OD was 0.783. “L3-72 (TGCRCKRSMYKNLH; AchR binding peptide) [Peptide L3-72]” was tested, and the OD was 0.746. In the case of “L3-94 (PVLKLRKGRVRAQP; AchR binding peptide) [Peptide L3-94]”, the OD is reported as 0.61. “L3-7 (EGDKFRRHDIKYNF; AchR binding peptide) [Peptide L3-7]” showed an OD of 0.803. In the case of “L3-50 (VFDKFRKTENRGVI; AchR binding peptide) [Peptide L3-50]”, the OD is reported as 0.634. Work on “L3-167 (AMCREKRFPYRAIY; AchR binding peptide) [Peptide L3-167]” yielded an OD of 0.634. In the case of “L3-45 (PGNRMKKYQNRVHG; AchR binding peptide) [Peptide L3-45]”, the OD is reported as 0.735. In the case of “L3-191 (GINRGRKVSPKDEQ; AchR binding peptide) [Peptide L3-191]”, the OD is reported as 0.739. Substance “L3-55 (HFPRARRFEHRCML; AchR binding peptide) [Peptide L3-55]” has an OD of 0.706. In the case of “L3-133 (VDSREKKWRQKCQC; AchR binding peptide) [Peptide L3-133]”, the OD is reported as 0.566. Work on “L3-9 (NCNRFRRTIVRHCH; AchR binding peptide) [Peptide L3-9]” yielded an OD of 0.725. Work on “L3-154 (ENIKSRKYFVKLTW; AchR binding peptide) [Peptide L3-154]” yielded an OD of 0.766. With “L3-56 (QISKLKRPSYRGDD; AchR binding peptide) [Peptide L3-56]” the OD was 0.703. Substance “L3-86 (SEVRPKKDHSRLFI; AchR binding peptide) [Peptide L3-86]” has an OD of 0.755. For “L3-136 (PFDRARRDLHRIMM; AchR binding peptide) [Peptide L3-136]”, the OD was 0.512. “L3-121 (CDDKPKKTVVKLTW; AchR binding peptide) [Peptide L3-121]” was tested, and the OD was 0.655. Work on “L3-48 (PHCRQKKFWIRCGT; AchR binding peptide) [Peptide L3-48]” yielded an OD of 0.622. In the case of “L3-145 (MHIKMKREQVKDEE; AchR binding peptide) [Peptide L3-145]”, the OD is reported as 0.495. “L3-174 (SSGKWKRPHAKYIV; AchR binding peptide) [Peptide L3-174]” showed an OD of 0.783. “L3-84 (HTFKLRKLCQKLFE; AchR binding peptide) [Peptide L3-84]” showed an OD of 0.739. For “L3-195 (IEDKSKRFNCKECG; AchR binding peptide) [Peptide L3-195]”, the OD was 0.7. For “L3-92 (NLERTKKHGLKGYM; AchR binding peptide) [Peptide L3-92]”, the OD was 0.657.

Same assay, conditions: phage ELISA, absorbance at 450 nm, 5 μg/ml AchR; 4th and 5th round biopanning phages
KWRRELPR [Peptide L1-182] gave an OD of 0.585. RPKRSPSK [Peptide L1-117] gave an OD of 0.508. Work on KYRRNLVR [Peptide L1-56] yielded an OD of 0.468. KTRKQDHR [Peptide L1-172] showed an OD of 0.631. KWRRAFGR [Peptide L1-87] showed an OD of 0.538. With KAKRDYLR [Peptide L1-145] the OD was 0.54. With RGRRGTMR [Peptide L1-93] the OD was 0.616. In the case of RPRRGHQK [Peptide L1-24], the OD is reported as 0.742. Work on KPRKIQGR [Peptide L1-137] yielded an OD of 0.458. With KLKKFPVR [Peptide L1-4] the OD was 0.696. For KQKKTGFR [Peptide L1-55], the OD was 0.585. For RQKKDNQK [Peptide L1-26], the OD was 0.647. KFKKSAPR [Peptide L1-136] showed an OD of 0.392. Work on KTRKIVMK [Peptide L1-199] yielded an OD of 0.596. RNRKIPLK [Peptide L1-44] gave an OD of 0.59. For KVKRLPYR [Peptide L1-146], the OD was 0.362. Substance RIRRWWVR [Peptide L1-82] has an OD of 0.596. KEKKLVWK [Peptide L1-174] was tested, and the OD was 0.596. KMRKFYSK [Peptide L1-189] was tested, and the OD was 0.616. In the case of KARKNSIR [Peptide L1-170], the OD is reported as 0.642. KWRRNGQR [Peptide L1-98] gave an OD of 0.54. RGKRQLGR [Peptide L1-3] gave an OD of 0.649. With RCRKDTAR [Peptide L1-142] the OD was 0.469. Substance KHKKQNVR [Peptide L1-18] has an OD of 0.627. KIRRVTNK [Peptide L1-162] showed an OD of 0.668. For KTKRVDPK [Peptide L1-102], the OD was 0.507. For KIKKAARR [Peptide L1-35], the OD was 0.556. Work on RMKKFHTR [Peptide L1-128] yielded an OD of 0.301. With KFRRQSTR [Peptide L1-139] the OD was 0.456. Substance RCKRFVGK [Peptide L1-173] has an OD of 0.63. “GGRKKRRQRRRGGG [Peptide L3-202, reference compound]” was tested, and the OD was 0.301.
